Data reported in paper PMC7484405.

T1: M2-1 WT (Human respiratory syncytial virus …, UniProt P04545 1-194)
T1 sequence: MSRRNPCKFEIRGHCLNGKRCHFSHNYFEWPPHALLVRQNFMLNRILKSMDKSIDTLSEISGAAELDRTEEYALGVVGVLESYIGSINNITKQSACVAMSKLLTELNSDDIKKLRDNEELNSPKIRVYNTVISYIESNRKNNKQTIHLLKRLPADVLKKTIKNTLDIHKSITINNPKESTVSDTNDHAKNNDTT


What was measured:
[1] = biological target: T1, M2-1 WT; assay: X-ray crystallography
[2] = biological target: T1, M2-1 WT; assay: MST

Binder | binding result [1] | Kd [2]
AGUUAAU (ssRNA) [SH7] | binds | 
AGUUAAUUAAAAA (ssRNA) [SH 13-nt positive-sense gene-end RNA] |  | 870 nM
